Laboratory results taken from paper PMC7491322, “Molecular basis for the distinct cellular functions of the Lsm1–7 and Lsm2–8 complexes” (RNA, 2020).

T1: S. pombe Lsm4 (S. pombe, UniProt O14352 1-121)
T1 construct: Lsm4, S. pombe, codon-optimised open reading frame; noncleavable tag; source: E. coli BL21(DE3) STAR pLysS, coexpressed with the other Lsm proteins, purified as part of the Lsm2–8 or Lsm1–7 complex; not shown: Strep-II, C-terminal, kept
T1 sequence (looked up): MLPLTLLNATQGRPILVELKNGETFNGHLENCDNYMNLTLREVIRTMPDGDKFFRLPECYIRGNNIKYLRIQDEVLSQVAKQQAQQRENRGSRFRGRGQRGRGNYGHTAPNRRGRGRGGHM

T2: S. pombe Lsm2 (S. pombe, UniProt O94408 1-96)
T2 construct: Lsm2, S. pombe, codon-optimised open reading frame, no purification tag; source: E. coli BL21(DE3) STAR pLysS, coexpressed with the other Lsm proteins, purified as part of the Lsm2–8 or Lsm1–7 complex
T2 sequence (looked up): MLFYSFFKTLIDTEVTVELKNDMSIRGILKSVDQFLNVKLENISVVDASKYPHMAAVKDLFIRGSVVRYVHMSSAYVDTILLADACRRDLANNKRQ

B1: S. pombe Lsm6 (natural protein, UniProt Q9UUI1 1-75, looked up)
chain: MDSSPNEFLNKVIGKKVLIRLSSGVDYKGILSCLDGYMNLALERTEEYVNGKKTNVYGDAFIRGNNVLYVSALDD
notes: Lsm6, S. pombe, codon-optimised open reading frame; source: E. coli BL21(DE3) STAR pLysS, coexpressed with the other Lsm proteins, purified as part of the Lsm2–8 or Lsm1–7 complex; not shown: MBP, N-terminal, cleaved
B2: S. pombe Lsm8 (natural protein, UniProt O74483 2-94, looked up)
chain: SLADFMEQRVQVITNDGRVVLGSLKGFDHTTNLILSDSFERIISMDQDMETIPLGVYLLRGENVAMVGLVNEELDSEIEWTKIRGEAIPDVVH
notes: Lsm8, S. pombe, codon-optimised open reading frame, no purification tag; amino-terminal methionine missing by ESI-MS; source: E. coli BL21(DE3) STAR pLysS, coexpressed with the other Lsm proteins, purified as part of the Lsm2–8 complex
B3: S. pombe Lsm3 (natural protein)
chain: not shown
notes: Lsm3, S. pombe, codon-optimised open reading frame; TEV site between GST and Lsm3; The complex was held through the GST on Lsm3 on glutathione agarose during the purification; TEV protease was added to the eluate before the later steps and the crystallisation; source: E. coli BL21(DE3) STAR pLysS, coexpressed with the other Lsm proteins, purified as part of the Lsm2–8 or Lsm1–7 complex; not …

Key:
Settings in all cases: both partners purified
S. pombe Lsm5 = target: T3, S. pombe Lsm5 (S. pombe, UniProt O42978 2-80); assay: crystal structure; Lsm1_(Δ56C)–7 ring with UUUUUA (1.8 Å) or AUUUUG (2.1 Å); 10% PEG 8000, 20% ethylene glycol, HEPES/MOPS
T3 construct: Lsm5, S. pombe, codon-optimised open reading frame, no purification tag; amino-terminal methionine missing by ESI-MS; source: E. coli BL21(DE3) STAR pLysS, coexpressed with the other Lsm proteins, purified as part of the Lsm2–8 or Lsm1–7 complex
T3 sequence (O42978 2-80): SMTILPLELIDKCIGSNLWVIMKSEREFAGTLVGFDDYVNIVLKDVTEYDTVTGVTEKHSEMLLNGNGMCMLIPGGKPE

S. pombe Lsm3 [1] = target: B3; assay: as above
Sequence of S. pombe Lsm3 (Q9Y7M4 whole entry): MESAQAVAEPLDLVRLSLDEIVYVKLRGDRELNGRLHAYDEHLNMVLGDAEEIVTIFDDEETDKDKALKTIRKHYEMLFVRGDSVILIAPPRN

S. pombe Lsm4 = target: T1, S. pombe Lsm4; assay: crystal structure; Lsm2–8 ring with UUUUU-3′-OH (1.9 Å) or UUUUU>p (2.3 Å); hanging drop, 16°C, 100–200 mM KCl, 50–100 mM HEPES pH 7.4, 35% pentaerythritol propoxylate
S. pombe Lsm2 [2] = target: T2, S. pombe Lsm2; assay: as above
S. pombe Lsm3 [3] = target: B3; assay: as above
S. pombe Lsm2 [4] = target: T2, S. pombe Lsm2; assay: crystal structure; Lsm1_(Δ56C)–7 ring with UUUUUA (1.8 Å) or AUUUUG (2.1 Å); 10% PEG 8000, 20% ethylene glycol, HEPES/MOPS

Binder: B1
binding result (S. pombe Lsm5): binds
binding result (S. pombe Lsm3 [1]): binds

Binder: B2
binding result (S. pombe Lsm4): binds
binding result (S. pombe Lsm2 [2]): binds
binding result (S. pombe Lsm3 [3]): binds

Binder: B3
binding result (S. pombe Lsm2 [4]): binds
